# Results from paper PMC3128119.
# T1: SmeT (UniProt Q8KLP4 1-219)
# T1 sequence: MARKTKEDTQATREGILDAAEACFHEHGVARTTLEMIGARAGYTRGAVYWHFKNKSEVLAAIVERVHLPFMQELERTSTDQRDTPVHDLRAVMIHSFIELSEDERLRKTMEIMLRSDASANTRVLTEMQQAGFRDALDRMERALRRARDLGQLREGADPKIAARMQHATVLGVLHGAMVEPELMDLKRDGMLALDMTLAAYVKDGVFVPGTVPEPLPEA
# B1: 30-bp smeT operator (dsDNA)
# DNA 1: GTTTACAAACAAACAAGCATGTATGTATAT
# DNA 2: ATATACATACATGCTTGTTTGTTTGTAAAC
# Target: T1, SmeT
# Assay: EMSA; 0.2 uM SmeT, 2 nM DNA, no triclosan, 10 mM MgCl2; EMSA: 10 mM Tris-HCl pH 7.2, 50 mM KCl, 10 mM MgCl2, 1 mM EDTA, 50 ug/ml BSA, 1 mM DTT, 5% glycerol, 100 ug/ml poly(dI-dC), room temperature 20 min (+15 min with biocide); 6% gel at 4 C
# Details: protein: recombinant; tags: none stated after intein-CBD self-cleavage (pTYB1); chain copies: 2; label: 5' 32P; blunt
binder,measurement,value
B1,binding result,binds
